Test results published in patent US20250121086A1, “LIVER-TARGETED SUBSTANCE AND USE THEREOF” (HANMI PHARM. CO., LTD., priority 2021, published 2025).
Bridge positions count the residues as written; N and C are the ends. Square brackets hold non-standard residues; d marks the D form. Ends that are not written are not given here. Aib = CC(C)(N)C(=O)O

These binders were tested against human glucagon receptor (human, UniProt P47871 26-477) (assay: cell-based or functional assay).
Sequence of human glucagon receptor (P47871 26-477): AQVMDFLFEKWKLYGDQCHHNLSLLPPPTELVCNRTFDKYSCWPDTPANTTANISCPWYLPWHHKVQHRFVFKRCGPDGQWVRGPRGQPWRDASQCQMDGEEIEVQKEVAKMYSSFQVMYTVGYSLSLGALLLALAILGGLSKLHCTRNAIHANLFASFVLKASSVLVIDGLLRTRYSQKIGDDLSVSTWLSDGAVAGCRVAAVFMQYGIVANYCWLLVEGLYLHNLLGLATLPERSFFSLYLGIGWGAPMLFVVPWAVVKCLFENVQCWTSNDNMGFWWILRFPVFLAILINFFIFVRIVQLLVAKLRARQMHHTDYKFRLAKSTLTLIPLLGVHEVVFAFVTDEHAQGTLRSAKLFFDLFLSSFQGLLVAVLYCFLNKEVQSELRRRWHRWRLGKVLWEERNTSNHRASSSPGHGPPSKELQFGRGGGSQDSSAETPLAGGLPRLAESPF

Binder	In vitro activity (relative activity compared with SEQ ID NO: 1, %); cAMP EC50 in CHO cells expressing human GCG receptor
Y[Aib]QGTFTSDYSKYLDSRRACDFRLWLMNT [glucagon derivative peptide of SEQ ID NO: 18]	< 0.1%
HSQGTFTSDYSKYLDCDRAQDFVQWLMNT [glucagon derivative peptide of SEQ ID NO: 2]	0.6%
Y[Aib]QGTFTSDYSKYLDCKRAKEFVQWLMNT [glucagon derivative peptide of SEQ ID NO: 14]	18.1%
HSQGTFTSDYSKYLDSCDAQDFVQWLMNT [glucagon derivative peptide of SEQ ID NO: 4]	< 0.1%
Y[Aib]QGTFVSDYSKYLDECRAKDFVQWLMNT (lactam 16-20) [glucagon derivative peptide of SEQ ID NO: 27]	93.6%
Y[Aib]QGTFTSDYSKYLCEKRAQDFVVWLMNT [glucagon derivative peptide of SEQ ID NO: 15]	1.1%
Y[Aib]QGTFTSDYSKYLDCVRAQDFVQWLMRT [glucagon derivative peptide of SEQ ID NO: 17]	23.2%
Y[Aib]QGTFTSDYSKYCDEKRAKEFVQWLMNT (lactam 16-20) [glucagon derivative peptide of SEQ ID NO: 23]	76.8%
Y[Aib]QGTFTSDYSKYLDEKRAKCFVQWLMNT (lactam 16-20) [glucagon derivative peptide of SEQ ID NO: 25]	46.9%
Y[Aib]QGTFTSDYSKYLDEKCAKEFVQWLMNT (lactam 16-20) [glucagon derivative peptide of SEQ ID NO: 21]	57.8%
YSQGTFTSDYSKYLDSCEADDFVQWLMNT [glucagon derivative peptide of SEQ ID NO: 7]	< 0.1%
W[Aib]QGTFTSDYSKYLDECRAKDFVQWLMNT (lactam 16-20) [glucagon derivative peptide of SEQ ID NO: 26]	1%
Y[Aib]QGTFTSDYSKCLDEKRAKEFVQWLMNT (lactam 16-20) [glucagon derivative peptide of SEQ ID NO: 24]	58%
Y[Aib]QGTFTSDYSKYLDECRAKEFVQWLMNT (lactam 16-20) [glucagon derivative peptide of SEQ ID NO: 20]	300%
Y[Aib]QGTFTSDYSKYLDCRRAQVFVQWLMRT [glucagon derivative peptide of SEQ ID NO: 16]	4.2%
Y[Aib]QGTFTSDYSKYLDSCDADDFVVWLINT [glucagon derivative peptide of SEQ ID NO: 10]	< 0.1%
HSQGTFTSDYSKYLDSCEADDFVQWLMNT [glucagon derivative peptide of SEQ ID NO: 6]	< 0.1%
HSQGTFTSDYSKYLDCERAQDFVQWLMNT [glucagon derivative peptide of SEQ ID NO: 3]	6.1%
Y[Aib]QGTFTSDYSKYLDSCDAQDFVQWLINT [glucagon derivative peptide of SEQ ID NO: 8]	< 0.1%
Y[Aib]QGTFTSDYSCYLDSRRAQDFVQWLMNT [glucagon derivative peptide of SEQ ID NO: 13]	5.2%
Y[Aib]QGTFTSDYSKYLDSCDAQDFVVWLINT [glucagon derivative peptide of SEQ ID NO: 9]	< 0.1%
HSQGTFTSDYSKYLDSCEAQDFVQWLMNT [glucagon derivative peptide of SEQ ID NO: 5]	0.3%
Y[Aib]QGTFTSDYSKYLDEKCAKEFVQWLMNT [glucagon derivative peptide of SEQ ID NO: 11]	4.6%
Y[Aib]QGTFTSDYSKYLDEKRCKEFVQWLMNT (lactam 16-20) [glucagon derivative peptide of SEQ ID NO: 22]	148%
Y[Aib]QGTFTSDYSKYLCEKRAKEFVQWLMNT (lactam 16-20) [glucagon derivative peptide of SEQ ID NO: 19]	12.1%

More lines, now with the values ahead:

In vitro activity (relative activity compared with SEQ ID NO: 1, %); cAMP EC50 in CHO cells expressing human GCG receptor	Binder
167%	Y[Aib]QGTFCSDYSKYLDERRAKEFVQWLMNT (lactam 16-20) [glucagon derivative peptide of SEQ ID NO: 38]
< 0.1%	W[Aib]QGTFVSDYSKYLDECRAKDFVQWLMNT (lactam 16-20) [glucagon derivative peptide of SEQ ID NO: 28]
37.9%	Y[Aib]QGTFCSDYSKYLDSRRAQDFVQWLMNT [glucagon derivative peptide of SEQ ID NO: 42]
17.7%	Y[Aib]QGTFTSDYSKYCDERRAKEFVQWLMNT (lactam 16-20) [glucagon derivative peptide of SEQ ID NO: 35]
40.8%	Y[Aib]QGTFVSDYSKYLDERRAKDFVQWLMNTC (lactam 16-20) [glucagon derivative peptide of SEQ ID NO: 40]
0.2%	W[Aib]QGTFTSDYSKYCDERRAKEFVQWLMNT (lactam 16-20) [glucagon derivative peptide of SEQ ID NO: 34]
3.7%	Y[Aib]QGTFVSDCSKYLDERRAKDFVQWLMNT (lactam 16-20) [glucagon derivative peptide of SEQ ID NO: 39]
0.3%	W[Aib]QGTFTSDYSKCLDERRAKDFVQWLMNT (lactam 16-20) [glucagon derivative peptide of SEQ ID NO: 30]
1.6%	Y[Aib]QGTFTSDCSKYLDSRRAQDFVQWLMNT [glucagon derivative peptide of SEQ ID NO: 43]
226%	Y[Aib]QGTFTSDYSKYLDERRAKEFVQWLMNTC (lactam 16-20) [glucagon derivative peptide of SEQ ID NO: 37]
0.7%	SQGTFTSDYSKYLDECRAKEFVQWLMNT (lactam 15-19) [glucagon derivative peptide of SEQ ID NO: 32]
45.2%	Y[Aib]QGTFCSDYSKYLDERRAKDFVQWLMNT (lactam 16-20) [glucagon derivative peptide of SEQ ID NO: 41]
6.3%	Y[Aib]QGTFTSDYSKYLDCKRAKEFVQWLMNT (lactam 17-21) [glucagon derivative peptide of SEQ ID NO: 31]
9.9%	Y[Aib]QGTFTSDCSKYLDERRAKEFVQWLMNT (lactam 16-20) [glucagon derivative peptide of SEQ ID NO: 36]
75.4%	YXQGTFTSDYSKYLDSRRAQDFVQWLMNTC (aminoisobutyric acid (Aib) at position 2 (printed X)) [glucagon derivative peptide of SEQ ID NO: 44]
108%	YXQGTFTSDYSKYLDSRRAQDFVQWLMNT (aminoisobutyric acid (Aib) at position 2 (printed X)) [glucagon derivative peptide of SEQ ID NO: 33]
61.3%	Y[Aib]QGTFTSDYSKCLDERRAKDFVQWLMNT (lactam 16-20) [glucagon derivative peptide of SEQ ID NO: 29]
5.2%	Y[Aib]QGTFTSDYSCYLDEKRAKEFVQWLMNT [glucagon derivative peptide of SEQ ID NO: 45]
